In article PMC2709796 one finds Kd, koff and kon data, which are given here for one molecule.

In this assay the target is human LRP purified from placenta (human). Nature of the assay: SPR.

B1: hexa-His-tagged fragment of sorLA including the YWTD-repeated β-propeller, the single EGF-domain and the 11 CR-domains (residues 728-1526) (domain or fragment)
chain: YRKISGDTCSGGDVEARLEGELVPCPLAEENEFILYAVRKSIYRYDLASGATEQLPLTGLRAAVALDFDYEHNCLYWSDLALDVIQRLCLNGSTGQEVIINSGLETVEALAFEPLSQLLYWVDAGFKKIEVANPDGDFRLTIVNSSVLDRPRALVLVPQEGVMFWTDWGDLKPGIYRSNMDGSAAYHLVSEDVKWPNGISVDDQWIYWTDAYLECIERITFSGQQRSVILDNLPHPYAIAVFKNEIYWDDWSQLSIFRASKYSGSQMEILANQLTGLMDMKIFYKGKNTGSNACVPRPCSLLCLPKANNSRSCRCPEDVSSSVLPSGDLMCDCPQGYQLKNNTCVKQENTCLRNQYRCSNGNCINSIWWCDFDNDCGDMSDERNCPTTICDLDTQFRCQESGTCIPLSYKCDLEDDCGDNSDESHCEMHQCRSDEYNCSSGMCIRSSWVCDGDNDCRDWSDEANCTAIYHTCEASNFQCRNGHCIPQRWACDGDTDCQDGSDEDPVNCEKKCNGFRCPNGTCIPSSKHCDGLRDCSDGSDEQHCEPLCTHFMDFVCKNRQQCLFHSMVCDGIIQCRDGSDEDAAFAGCSQDPEFHKVCDEFGFQCQNGVCISLIWKCDGMDDCGDYSDEANCENPTEAPNCSRYFQFRCENGHCIPNRWKCDRENDCGDWSDEKDCGDSHILPFSTPGPSTCLPNYYRCSSGTCVMDTWVCDGYRDCADGSDEEACPLLANVTAASTPTQLGRCDRFEFECHQPKTCIPNWKRCDGHQDCQDGRDEANCPTHSTLTCMSREFQCEDGEA
As a reminder, the Kd is the concentration at which binding is half-saturated. By koff is commonly meant the first-order rate constant of dissociation. A higher koff goes with fast dissociation. Broadly, the kon is the second-order rate constant of association. Low readings indicate slower complex formation, high ones faster complex formation. In turn, B1 yielded a Kd of 0.0365 µM, a koff of 0.00015 s⁻¹ and an association rate constant (kon) of 4110 M⁻¹ s⁻¹.
